Results: US20080213296A1
pKd: −log10 of the molar value. “And” between values parts separate entries of the source, which are not always exact repeats. Equal values may be shown once.

What was measured:
[1] = target: HIV 89.6 gp140 envelope protein (cleaved gp140 preparation, oligomers) (HIV 89.6 (Clade B) primary isolate); assay: SPR, D1 peptide over 89.6 gp140 captured on immobilized CD4 (CD4-gp140 complex)
[2] = target: HIV 89.6 gp140 envelope protein (cleaved gp140 preparation, oligomers) (HIV 89.6 (Clade B) primary isolate); assay: SPR, D1 peptide over directly immobilized 89.6 gp140, no CD4
[3] = target: HIV 89.6 gp140 envelope protein (cleaved gp140 preparation, oligomers) (HIV 89.6 (Clade B) primary isolate); assay: SPR, sCD4-ligated gp140
soluble CD4 [4] = target: soluble CD4 (UniProt P01730); assay: SPR
[5] = target: recombinant HIV ADA gp41 protein (HIV ADA); assay: SPR, 89.6 gp120 pre-incubated with 0.3 mg/ml CD4, over immobilized ADA gp41
[6] = target: recombinant HIV ADA gp41 protein (HIV ADA); assay: SPR, 89.6 gp120 (100 µg/ml) over immobilized ADA gp41
soluble CD4 [7] = target: soluble CD4 (UniProt P01730); assay: SPR, gp120 over immobilized CD4
[8] = target: HIV 89.6 gp120 envelope protein (soluble) (HIV 89.6 (Clade B) primary isolate); assay: SPR capture assay, mAb pre-incubated with 89.6 gp120, captured on A32; competitor DP178 50 µg/ml
[9] = target: HIV 89.6 gp120 envelope protein (soluble) (HIV 89.6 (Clade B) primary isolate); assay: SPR capture assay, gp120 over immobilized A32
[10] = target: scrambled sequence DP178 peptide; assay: SPR SA-chip assay, A32 over biotinylated scrDP178
[11] = target: HIV 89.6 gp120 envelope protein (soluble) (HIV 89.6 (Clade B) primary isolate); assay: SPR SA-chip assay, 89.6 gp120 alone over biotinylated scrDP178

“CCR5-D1 peptide (CCR5 N-terminal extracellular domain peptide)” showed a pKd [1] of 6.55, a koff [1] of 0.00256 s⁻¹ and a kon [1] of 9000 M⁻¹ s⁻¹. For the same substance, the pKd [2] was 6.00, the koff [2] was 0.01 s⁻¹ and the pKd [3] was 3.55.
“HIV 89.6 gp120 envelope protein (soluble)” was tested, and the t1/2 of binding (soluble CD4 [4]) was 105 min, the RU bound [5] was 850 RU and the RU bound [6] was 300 RU. For the same substance, the pKd (soluble CD4 [7]) was 7.64 and the koff (soluble CD4 [7]) was 0.00011 s⁻¹.
Substance HIV DH12 gp120 (soluble, monomeric) has a t1/2 of binding (soluble CD4 [4]) of 25 min, a pKd (soluble CD4 [7]) of 7.02 and a koff (soluble CD4 [7]) of 0.00047 s⁻¹.
Work on HIV JRFL gp120 (soluble, monomeric) yielded a t1/2 of binding (soluble CD4 [4]) of 14 min, a pKd (soluble CD4 [7]) of 6.84 and a koff (soluble CD4 [7]) of 0.00088 s⁻¹.
For “mAb 48d (human, coreceptor binding site of gp120) (antibody)”, the % blocking of DP178 binding [8] was 80%.
In the case of “mab 17b (human, CCR5/coreceptor binding site of gp120) (antibody)”, the % blocking of DP178 binding [8] was 80%.
“mab 19b (human anti-gp120 V3 loop) (antibody)” gave a % blocking of DP178 binding [8] of 68%.
For “mab A32 (human anti-gp120, conformational determinant) (antibody)”, the RU bound [9] was 2000 RU and the RU (background signal) [10] was 10 RU and 20 RU.
With scrambled sequence DP178 peptide the RU (constitutive binding) [11] was 50 RU.
